Paper PMC3711080 (Bioconjugate chemistry, 2011)

Assays:
CXCR4 = CXCR4 (Homo sapiens, UniProt P61073); assay: Competition binding against 250 nM of peptide 3, flow cytometry; details: ratio of KD values, higher affinity of 1
[1] = molecular target: chemokine receptor 4 (CXCR4) (human (endogenous in MDAMB231)) (UniProt P61073); assay: flow cytometry on cells
chemokine receptor 4 (CXCR4) (human (endogenous in MDAMB231)), sequence (P61073 whole entry): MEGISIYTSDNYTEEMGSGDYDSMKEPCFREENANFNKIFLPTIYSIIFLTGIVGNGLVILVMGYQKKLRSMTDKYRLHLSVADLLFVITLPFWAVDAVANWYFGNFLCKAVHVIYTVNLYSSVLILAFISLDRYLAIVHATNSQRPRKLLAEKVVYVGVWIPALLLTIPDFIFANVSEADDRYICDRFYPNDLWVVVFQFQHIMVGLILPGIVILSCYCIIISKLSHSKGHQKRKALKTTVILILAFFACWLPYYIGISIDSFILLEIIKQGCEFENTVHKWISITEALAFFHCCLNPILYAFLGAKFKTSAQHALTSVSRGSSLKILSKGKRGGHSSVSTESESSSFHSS

CXCR4, sequence (P61073 whole entry): as above

Substance	receptor affinity relative to derivatives 3 and 4 (CXCR4)	Kd [1]	MFIR (mean fluorescence intensity ratio), MDAMB231^CXCR4+ cells [1]
Ac-TZ14011 [compound 1]	approximately 20 times	–	–
Ac-TZ14011 labeled with the MSAP reagent (peptide 3)	–	0.187 µM	45.3
Ac-TZ14011 labeled with the MSAP reagent, indium-labeled (peptide 4)	–	0.177 µM	56.7
